{"source": "patent US20240400722A1", "about": "“Chemically Inducible Heterodimerizing System and A Method For Generation Thereof” (Miltenyi Biotec B.V. & Co. KG, priority 2023, published 2024)", "molecules": {"B1": {"name": "dfM1-1 (protein)", "chain": "QVQLVESGGGLVQAGGSLRLSATAYGKTGTIYSMAWFRQAPGKEREFLAPVALGLQSTYYMDSVKGRFTISRDKGKNTVYLQMDSLKPEDTAVYYAAATRAYSVGYDYWGQGTQVTVTS", "modifications": "left off: large carriers; small tags and cut ends"}, "B2": {"name": "dfM1-2 (protein)", "chain": "B1 chain with Q1E, K27R, T118S", "modifications": "left off: large carriers; small tags and cut ends"}, "B3": {"name": "acVHH-V104D: acVHH-WT variant with point mutation V104D, SEQ ID NO:2; first antigen binding domain AB1 (protein)", "VHH": "QVQLVESGGGLVQAGGSLRLSCTASGRTGTIYSMAWFRQAPGKEREFLATVGWSSGITYYMDSVKGRFTISRDKGKNTVYLQMDSLKPEDTAVYYCTATRAYSDGYDYWGQGTQVTVSS"}, "B4": {"name": "acVHH-WT: existing thermally stable caffeine-specific single domain antibody fragment from llama used for homodimerization, SEQ ID NO:1 (protein)", "VHH": "B3 VHH with D104V"}, "B5": {"name": "acVHH-M2 (protein)", "chain": "B3 VHH with T50Q, V51Q, G52R, S54L, S55F, G56R, I57R, D104V", "modifications": "left off: large carriers; small tags and cut ends"}, "B6": {"name": "acVHH-M1 (protein)", "chain": "B1 chain with A22C, Y25S, K27R, A96C, A97T, T118S", "modifications": "left off: large carriers; small tags and cut ends"}}, "key": {"acVHH-V104D [1]": {"tested_on": "acVHH-V104D", "experiment": "Yeast surface display binding of acVHH variants to soluble acVHH-V104D", "set-up": "species or system llama", "settings": "for background binding signal in the absence of any small molecule: 500 nM soluble acVHH-V104D, buffer only (control, PBSA); for affinity towards acVHH-V104D: summary statement, interaction dependent on caffeine; for affinity (KD) to acVHH-V104D: titration with soluble acVHH-V104D in the presence of 30 μM caffeine; for dependency of heterodimerization with acVHH-V104D on the presence of caffeine: yeast display flow cytometry, with or without caffeine", "description": "The staining for flow cytometry characterization was performed in PBSA (PBS containing 15 μM bovine serum albumin). […] In addition, controls with buffer only (containing neither an ac VHH variant nor caffeine) were included. After a washing step the cells were stained for 20 min at 4° C. and shaking with either streptavidin-Alexa Fluor 647 (Invitrogen) or Penta-His-Alexa Fluor 647 (Qiagen) to assess acVHH-V104D or acVHH-WT binding, as well as anti-HA-Alexa Fluor 488 (clone 16B12, Biolegend) or anti-c-myc AlexaFluor 488 (9E10, Thermofisher) to assess display (anti-HA) or full-length display (anti-c-myc) of the acVHH variants, respectively. After a final washing step, the cells were analyzed with a CytoFLEX S flow cytometer (Beckman Coulter).\nExpression of the acVHH variants on yeast was induced by culturing the cells in SG-CAA medium (20 g/L galactose, 2 g/L glucose, 6.7 g/L yeast nitrogen base, 5 g/L bacto casamino acids, 10.2 g/L Na2HPO4*7 H2O, 8.56 g/L NaH2PO4*H2O) overnight at 20° C. and 180 rpm. Detection of full-length proteins on the surface of the cells was carried out by staining the cells with anti-c-myc AlexaFluor 488 (9E10, Thermo Fisher). […] After a washing step with PBSA, they were stained with an anti-HA-Alexa Fluor 488 (BioLegend) to gate for displaying yeast cells and the geometric mean fluorescence intensity (gMFI) of binding to acVHH-V104D, detected by co-staining with a Penta-His-Alexa Fluor 647 (Qiagen) (recognizing the His-tag on acVHH-V104D) was measured.\nExpression of the variants on yeast was carried out in SG-CAA as described above. Full length display was assessed by staining with an anti-c-myc AlexaFluor 488 (9E10, Thermo Fisher) and binding to soluble acVHH-V104D was assessed by staining with Penta-His-Alexa Fluor 647 (Qiagen).\n56 clones of the library were sequenced as explained in Example 2. Only 2 variants were obtained, namely dfM1-1 and dfM1-2. Their binding and affinity to soluble acVHH-V104D as well as full length display was assessed with yeast surface display as described in Example 2."}, "acVHH-V104D [2]": {"tested_on": "acVHH-V104D", "experiment": "NanoBiT protein complementation assay in Jurkat T cells, intracellular binding to acVHH-V104D", "format": "cell-based, llama", "settings": "for background signal at very low concentrations of caffeine / background signal in the absence of caffeine: compared with acVHH-WT/acVHH-WT homodimers", "description": "(§1) The ac VHH variants were N-terminally fused to an extracellular globular domain used to assess expression, as well as a transmembrane domain, and C-terminally fused to a subunit of the split NanoLuc (NanoBiT® system), Promega. Thus, the resulting fusion protein consisted of an extracellular globular domain, followed by a transmembrane domain and intracellular ac VHH variants followed by a subunit of split NanoLuc luciferase.\nThe different chains built were as follows: the first polypeptide chain comprised truncated EGFR extracellular and transmembrane domain, followed by a 2×G4S linker and cither ac VHH-V104D or ac VHH-WT, followed by a linker (SEQ ID NO:31) and 11S NanoBiT® “Large BiT”, whereas the second polypeptide chain comprised truncated HER2 extracellular and transmembrane domain, followed by a linker (SEQ ID NO:32) and either ac VHH-V104D or ac VHH-WT or ac VHH-M1 or acVHH-M2 or dfM1-1 or dfM1-2, followed by a linker (SEQ ID NO:33) and 114 NanoBiT® “Small BiT”. The sequence of the truncated HER2 extracellular and transmembrane domain involved the amino acids at positions 339-683 according to the deposited Uniprot sequence (ID P04626). The sequence of the truncated EGFR extracellular and transmembrane domain involved the amino acids at positions 334-675 according to the deposited Uniprot sequence (ID P00533). The principle of the assay is as follows: upon binding of (i.e. dimerization) of the respective ac VHH variants, the fused NanoLuc luciferase subunits are brought into close proximity (the two subunits being fused to the two different polypeptide chains, respectively), thus resulting in a functional luciferase enzyme, whose activity can be measured.\nIn vitro transcription was performed with 200 ng of purified PCR product using the mMessage mMachine T7 Ultra Kit (Ambion) according to the manufacturer's instructions. The resulting mRNAs were column purified with the RNeasy Kit (Qiagen), aliquoted to 5 μg and frozen at −80° C. until electroporation. Jurkat T cells were electroporated with 5 μg mRNA per chain (10 μg mRNA total) using the Gene Pulser (Bio-Rad) and the following parameters: square wave protocol, 500 V, 5 ms, 4 mm cuvettes.\nIntracellular function of the dimers was assessed with the Nano-Glo® Luciferase Assay System (Promega)."}, "[3]": {"experiment": "Preparative size exclusion chromatography of acVHH variants", "format": "physicochemical", "settings": "HiLoad Superdex 75 pg, elution in PBS", "description": "Protein aggregates were removed via preparative size exclusion chromatography (SEC). The samples were first centrifuged at 16 000 rpm for 3 min to remove large aggregates and the supernatant was loaded onto a HiLoad Superdex 75 pg column connected to a Bio-Rad NG-C chromatography system. Elution was performed in PBS and the fractions containing proteins based on absorbance at 280 nm were pooled, concentrated as mentioned above and stored at −30° C."}, "acVHH-WT": {"tested_on": "acVHH-WT", "experiment": "NanoBiT protein complementation assay in Jurkat T cells, acVHH-WT homodimer", "format": "cell-based, llama", "description": "as §1\nThe different chains built were as follows: the first polypeptide chain comprised truncated EGFR extracellular and transmembrane domain, followed by a 2×G4S linker and cither ac VHH-V104D or ac VHH-WT, followed by a linker (SEQ ID NO:31) and 11S NanoBiT® “Large BiT”, whereas the second polypeptide chain comprised truncated HER2 extracellular and transmembrane domain, followed by a linker (SEQ ID NO:32) and either ac VHH-V104D or ac VHH-WT or ac VHH-M1 or acVHH-M2 or dfM1-1 or dfM1-2, followed by a linker (SEQ ID NO:33) and 114 NanoBiT® “Small BiT”. […] The principle of the assay is as follows: upon binding of (i.e. dimerization) of the respective ac VHH variants, the fused NanoLuc luciferase subunits are brought into close proximity (the two subunits being fused to the two different polypeptide chains, respectively), thus resulting in a functional luciferase enzyme, whose activity can be measured. […]"}, "[4]": {"settings": "+/- 30 μM caffeine, normalized to acVHH-WT homodimer with caffeine"}, "[5]": {"settings": "increasing concentrations of caffeine"}}, "note": "Substitutions are numbered along the chain they refer to. Names may count otherwise. “Also recorded” adds a separate entry of the source."}
{"molecule": "B1", "values": [{"measurement": "background binding signal in the absence of any small molecule", "setting": "acVHH-V104D [1]", "value": "does not trigger any detectable signal"}, {"measurement": "affinity towards acVHH-V104D", "setting": "acVHH-V104D [1]", "value": "high affinity in the nanomolar range"}, {"measurement": "affinity (KD) to acVHH-V104D", "setting": "acVHH-V104D [1]", "value": "low nM range"}, {"measurement": "intracellular binding with acVHH-V104D", "setting": "acVHH-V104D [2]; [4]", "value": "efficient heterodimerization"}, {"measurement": "background signal at very low concentrations of caffeine", "setting": "acVHH-V104D [2]", "value": "strongly reduced"}, {"measurement": "background signal in the absence of caffeine", "setting": "acVHH-V104D [2]", "value": "strongly reduced"}]}
{"molecule": "B2", "values": [{"measurement": "background binding signal in the absence of any small molecule", "setting": "acVHH-V104D [1]", "value": "does not trigger any detectable signal"}, {"measurement": "affinity towards acVHH-V104D", "setting": "acVHH-V104D [1]", "value": "high affinity in the nanomolar range"}, {"measurement": "affinity (KD) to acVHH-V104D", "setting": "acVHH-V104D [1]", "value": "low nM range"}, {"measurement": "intracellular binding with acVHH-V104D", "setting": "acVHH-V104D [2]; [4]", "value": "efficient heterodimerization"}, {"measurement": "background signal at very low concentrations of caffeine", "setting": "acVHH-V104D [2]", "value": "strongly reduced"}, {"measurement": "background signal in the absence of caffeine", "setting": "acVHH-V104D [2]", "value": "strongly reduced"}]}
{"molecule": "B3", "values": [{"measurement": "intracellular binding with acVHH-V104D", "setting": "acVHH-V104D [2]; [4]", "value": "does not show any detectable homodimerization"}, {"measurement": "intracellular binding with acVHH-V104D", "setting": "acVHH-V104D [2]; [5]", "value": "does not show any detectable homodimerization"}, {"measurement": "preparative SEC profile", "setting": "[3]", "value": "monomeric profile; also recorded: elutes as a defined monomeric peak"}]}
{"molecule": "B4", "values": [{"measurement": "intracellular homodimerization of acVHH-WT", "setting": "acVHH-WT; +/- 30 μM caffeine", "value": "shows homodimerization, which is enhanced by addition of caffeine"}, {"measurement": "intracellular homodimerization of acVHH-WT", "setting": "acVHH-WT; [5]", "value": "shows homodimerization, which is enhanced by addition of caffeine"}, {"measurement": "intracellular binding with acVHH-V104D", "setting": "acVHH-V104D [2]; [5]", "value": "very weak heterodimerization"}]}
{"molecule": "B5", "values": [{"measurement": "background binding signal in the absence of any small molecule", "setting": "acVHH-V104D [1]", "value": "virtual absence of any background signal"}, {"measurement": "affinity towards acVHH-V104D", "setting": "acVHH-V104D [1]", "value": "high affinity in the nanomolar range"}, {"measurement": "dependency of heterodimerization with acVHH-V104D on the presence of caffeine", "setting": "acVHH-V104D [1]", "value": "clear dependency"}, {"measurement": "intracellular binding with acVHH-V104D", "setting": "acVHH-V104D [2]; [4]", "value": "not detectable"}, {"measurement": "background signal in the absence of caffeine", "setting": "acVHH-V104D [2]", "value": "strongly reduced"}]}
{"molecule": "B6", "values": [{"measurement": "background binding signal in the absence of any small molecule", "setting": "acVHH-V104D [1]", "value": "virtual absence of any background signal; also recorded: does not trigger any detectable signal"}, {"measurement": "affinity towards acVHH-V104D", "setting": "acVHH-V104D [1]", "value": "high affinity in the nanomolar range"}, {"measurement": "affinity (KD) to acVHH-V104D", "setting": "acVHH-V104D [1]", "value": "low nM range"}, {"measurement": "dependency of heterodimerization with acVHH-V104D on the presence of caffeine", "setting": "acVHH-V104D [1]", "value": "clear dependency"}, {"measurement": "intracellular binding with acVHH-V104D", "setting": "acVHH-V104D [2]; [4]", "value": "weak"}, {"measurement": "background signal at very low concentrations of caffeine", "setting": "acVHH-V104D [2]", "value": "strongly reduced"}, {"measurement": "background signal in the absence of caffeine", "setting": "acVHH-V104D [2]", "value": "strongly reduced"}]}
